Measured values taken from patent publication US20210009975A1 (UNIVERSITY OF GEORGIA RESEARCH FOUNDATION, published 2021).

Experiments:
[1] = molecular target: 3'-sialyllactose-BSA (bovine); assay: LAC, Sia-3S1 column, 50 µg loaded, 10 mM EPPS pH 7.5 with 110 mM NaCl
[2] = molecular target: 3'-sialyllactose-BSA (bovine); assay: LAC, Sia-3S1 column, 100 µg loaded
[3] = molecular target: 3'-sialyllactose-BSA (bovine)
fetuin [4] = molecular target: fetuin (UniProt P12763); assay: LAC, Sia-3S1 coupled to Sepharose column, 100 µg fetuin loaded
fetuin [5] = molecular target: fetuin (UniProt P12763)
[6] = molecular target: proteins of MCF7 cell-free extract; assay: LAC, Sia-PS1 column, about 1.5 mg MCF7 proteins circulated at 4 °C overnight
[7] = molecular target: proteins of MCF7 cell-free extract; assay: LAC, Sia-PS1 column, approximately 500 µg CFE loaded
[8] = molecular target: proteins of MCF7 cell-free extract; assay: LAC, Sia-PS1 column, elution with 3′SL and 6′SL
asialofetuin = molecular target: T1, asialofetuin (UniProt P12763 19-359, de-sialylated glycans); assay: Western blot, Sia-3S1 as probe, anti-poly-His-HRP detection
T1 construct: also called de-sialylated fetuin
T1 sequence: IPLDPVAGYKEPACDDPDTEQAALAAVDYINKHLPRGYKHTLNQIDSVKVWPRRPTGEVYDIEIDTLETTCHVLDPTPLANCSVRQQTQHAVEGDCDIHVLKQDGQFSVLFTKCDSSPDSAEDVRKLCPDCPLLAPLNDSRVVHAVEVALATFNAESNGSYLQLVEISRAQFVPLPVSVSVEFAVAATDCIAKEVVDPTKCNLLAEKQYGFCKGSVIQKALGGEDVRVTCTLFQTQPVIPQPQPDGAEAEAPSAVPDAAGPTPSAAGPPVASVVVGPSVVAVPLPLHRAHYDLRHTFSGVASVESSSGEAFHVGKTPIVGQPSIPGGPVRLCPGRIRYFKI

horseradish peroxidase = molecular target: T2, horseradish peroxidase (horseradish, UniProt P00433 31-338); assay: Lectenz affinity chromatography (LAC), Sia-PS1 coupled to Sepharose column
T2 construct: also called HRP
T2 sequence: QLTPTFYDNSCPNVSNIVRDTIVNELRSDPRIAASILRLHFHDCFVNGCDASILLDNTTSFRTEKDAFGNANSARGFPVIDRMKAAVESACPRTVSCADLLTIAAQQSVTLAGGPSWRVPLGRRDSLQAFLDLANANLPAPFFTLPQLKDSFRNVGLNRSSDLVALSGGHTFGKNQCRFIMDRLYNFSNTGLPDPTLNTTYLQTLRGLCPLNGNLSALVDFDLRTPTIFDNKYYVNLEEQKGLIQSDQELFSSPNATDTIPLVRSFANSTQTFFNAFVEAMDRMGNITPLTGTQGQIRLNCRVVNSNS

Chain of 3'-sialyllactose-BSA (bovine) (P02769 25-607 limits assumed): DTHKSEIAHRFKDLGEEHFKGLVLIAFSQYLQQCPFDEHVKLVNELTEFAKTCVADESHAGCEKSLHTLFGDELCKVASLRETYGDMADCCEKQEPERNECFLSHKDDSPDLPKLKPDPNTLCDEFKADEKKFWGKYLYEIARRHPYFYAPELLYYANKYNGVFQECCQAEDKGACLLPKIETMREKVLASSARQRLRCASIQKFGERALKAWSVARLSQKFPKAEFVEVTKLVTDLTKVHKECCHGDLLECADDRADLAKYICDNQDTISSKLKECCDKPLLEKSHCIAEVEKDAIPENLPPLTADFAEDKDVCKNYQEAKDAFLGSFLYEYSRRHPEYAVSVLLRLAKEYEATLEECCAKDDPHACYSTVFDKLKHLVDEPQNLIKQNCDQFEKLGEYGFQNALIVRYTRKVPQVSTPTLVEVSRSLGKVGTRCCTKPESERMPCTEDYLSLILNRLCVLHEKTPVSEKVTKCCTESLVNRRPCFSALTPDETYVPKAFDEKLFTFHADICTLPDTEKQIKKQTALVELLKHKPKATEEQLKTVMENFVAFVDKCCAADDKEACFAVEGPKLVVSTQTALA

**Q.** With “Sia-3S1 Lectenz (NanB residues 30-697 with R193A, D270Q, A538V, E541D) (designed binder)” as the molecule, how does the amount that did not bind to the column [1] read?
**A.** 5 µg

**Q.** And the amount in flow through [2]?
**A.** 5 µg

**Q.** What about the 3'SL-BSA Elution (amount of bound 3'SL-BSA eluted from the column) [3] of the same molecule?
**A.** 45 µg

**Q.** What about the amount bound to the column (fetuin [4]) of the same molecule?
**A.** 85 µg

**Q.** What about the percent of bound fetuin competitively eluted by 3′SL (fetuin [5]) of the same molecule?
**A.** 100%

**Q.** And the percent of bound fetuin competitively eluted by 6′SL (fetuin [5])?
**A.** 50%

**Q.** What does the source list for “Sia-PS1 Lectenz (NanB residues 30-697 with Y653F) (designed binder)”?
**A.** amount of protein in eluted peak [6]: 207 µg; percent of loaded proteins in eluted peak [6]: 13.8%; amount of bound proteins (elution peak) [7]: 30 µg; amount of unbound proteins (flow-through peak) [7]: 319 µg; percent of total proteins bound to the column [8]: 10%

B1: Sia-3S1 Lectenz (NanB residues 30-697 with R193A, D270Q, A538V, E541D) (designed binder)
chain: NELNYGQLSISPIFQGGSYQLNNKSIDISSLLLDKLSGESQTVVMKFKADKPNSLQALFGLSNSKAGFKNNYFSIFMRDSGEIGVEIRDAQKGINYLFSRPASLWGKHKGQAVENTLVFVSDSKDKTYTMYVNGIEVFSETVDTFLPISNINGIDKATLGAVNAEGKEHYLAKGSIDEISLFNKAISDQEVSTIPLSNPFQLIFQSGDSTQANYFRIPTLYTLSSGRVLSSIDARYGGTHQSKSKINIATSYSDDNGKTWSEPIFAMKFNDYEEQLVYWPRDNKLKNSQISGSASFIDSSIVEDKKSGKTILLADVMPAGIGNNNANKADSGFKEINGHYYLKLKKNGDNDFRYTVRENGVVYNETTNKPTNYTINDKYEVLEGGKSLTVEQYSVDFDSGSLRERHNGKQVPMNVFYKDSLFKVTPTNYIAMTTSQNRGESWEQFKLLPPFLGEKHNGTYLCPGQGLALKSSNRLIFATYTSGELTYLISDDSGQTWKKSSASIPFKNVTADAQMVELRDGVIRTFFRTTTGKIAYMTSRDSGETWSKVSYIDGIQQTSYGTQVSAIKYSQLIDGKEAVILSTPNSRSGRKGGQLVVGLVNKEDDSIDWKYHYDIDLPSYGYAYSAITELPNHHIGVLFEKYDSWSRNELHLSNVVQYIDLEINDLTK
notes: also called Sia-31 [sic]; not shown: N-terminal hexa-histidine tag
**Q.** Does B1 bind (asialofetuin)?
**A.** no binding (tested: 1 µM)

B2: Sia-PS1 Lectenz (NanB residues 30-697 with Y653F) (designed binder)
chain: NELNYGQLSISPIFQGGSYQLNNKSIDISSLLLDKLSGESQTVVMKFKADKPNSLQALFGLSNSKAGFKNNYFSIFMRDSGEIGVEIRDAQKGINYLFSRPASLWGKHKGQAVENTLVFVSDSKDKTYTMYVNGIEVFSETVDTFLPISNINGIDKATLGAVNREGKEHYLAKGSIDEISLFNKAISDQEVSTIPLSNPFQLIFQSGDSTQANYFRIPTLYTLSSGRVLSSIDARYGGTHDSKSKINIATSYSDDNGKTWSEPIFAMKFNDYEEQLVYWPRDNKLKNSQISGSASFIDSSIVEDKKSGKTILLADVMPAGIGNNNANKADSGFKEINGHYYLKLKKNGDNDFRYTVRENGVVYNETTNKPTNYTINDKYEVLEGGKSLTVEQYSVDFDSGSLRERHNGKQVPMNVFYKDSLFKVTPTNYIAMTTSQNRGESWEQFKLLPPFLGEKHNGTYLCPGQGLALKSSNRLIFATYTSGELTYLISDDSGQTWKKSSASIPFKNATAEAQMVELRDGVIRTFFRTTTGKIAYMTSRDSGETWSKVSYIDGIQQTSYGTQVSAIKYSQLIDGKEAVILSTPNSRSGRKGGQLVVGLVNKEDDSIDWKYHYDIDLPSYGYAFSAITELPNHHIGVLFEKYDSWSRNELHLSNVVQYIDLEINDLTK
**Q.** Does B2 bind (horseradish peroxidase)?
**A.** no binding
